Reference: patent publication US20160122768

T1: phospho-SRC Y527 peptide [H-TSTEPQ-pY-QPGENL-OH]
T1 chain: TSTEPQYQPGENL

B1: RPTPκ (endogenous, in human RA FLS and RA synovial tissue) (protein)
chain: AQGQFSAGGCTFDDGPGACDYHQDLYDDFEWVHVSAQEPHYLPPEMPQGSYMIVDSSDHDPGEKARLQLPTMKENDTHCIDFSYLLYSQKGLNPGTLNILVRVNKGPLANPIWNVTGFTGRDWLRAELAVSTFWPNEYQVIFEAEVSGGRSGYIAIDDIQVLSYPCDKSPHFLRLGDVEVNAGQNATFQCIATGRDAVHNKLWLQRRNGEDIPVAQTKNINHRRFAASFRLQEVTKTDQDLYRCVTQSERGSGVSNFAQLIVREPPRPIAPPQLLGVGPTYLLIQLNANSIIGDGPIILKEVEYRMTSGSWTETHAVNAPTYKLWHLDPDTEYEIRVLLTRPGEGGTGLPGPPLITRTKCAEPMRTPKTLKIAEIQARRIAVDWESLGYNITRCHTFNVTICYHYFRGHNESKADCLDMDPKAPQHVVNHLPPYTNVSLKMILTNPEGRKESEETIIQTDEDVPGPVPVKSLQGTSFENKIFLNWKEPLDPNGIITQYEISYSSIRSFDPAVPVAGPPQTVSNLWNSTHHVFMHLHPGTTYQFFIRASTVKGFGPATAINVTTNISAPTLPDYEGVDASLNETATTITVLLRPAQAKGAPISAYQIVVEELHPHRTKREAGAMECYQVPVTYQNAMSGGAPYYFAAELPPGNLPEPAPFTVGDNRTYQGFWNPPLAPRKGYNIYFQAMSSVEKETKTQCVRIATKAATEEPEVIPDPAKQTDRVVKIAGISAGILVFILLLLVVILIVKKSKLAKKRKDAMGNTRQEMTHMVNAMDRSYADQSTLHAEDPLSITFMDQHNFSPRYENHSATAESSRLLDVPRYLCEGTESPYQTGQLHPAIRVADLLQHINLMKTSDSYGFKEEYESFFEGQSASWDVAKKDQNRAKNRYGNIIAYDHSRVILQPVEDDPSSDYINANYIDGYQRPSHYIATQGPVHETVYDFWRMIWQEQSACIVMVTNLVEVGRVKCYKYWPDDTEVYGDFKVTCVEMEPLAEYVVRTFTLERRGYNEIREVKQFHFTGWPDHGVPYHATGLLSFIRRVKLSNPPSAGPIVVHCSAGAGRTGCYIVIDIMLDMAEREGVVDIYNCVKALRSRRINMVQTEEQYIFIHDAILEACLCGETAIPVCEFKAAYFDMIRIDSQTNSSHLKDEFQTLNSVTPRLQAEDCSIACLPRNHDKNRFMDMLPPDRCLPFLITIDGESSNYINAALMDSYRQPAAFIVTQYPLPNTVKDFWRLVYDYGCTSIVMLNEVDLSQGCPQYWPEEGMLRYGPIQVECMSCSMDCDVINRIFRICNLTRPQEGYLMVQQFQYLGWASHREVPGSKRSFLKLILQVEKWQEECEEGEGRTIIHCLNGGGRSGMFCAIGIVVEMVKRQNVVDVFHAVKTLRNSKPNMVEAPEQYRFCYDVALEYLESS
B2: C-terminally HA-tagged wild type (WT) RPTPκ (NM 008983.2), full-length, immunoprecipitated from COS-1 cells (protein)
chain: ALGQFSAGGCTFDDGPGACDYHQDLYDDFEWVHVSAQEPHYLPPEMPQGSYMVVDSSNHDPGEKARLQLPTMKENDTHCIDFSYLLYSQKGLNPGTLNILVRVNKGPLANPIWNVTGFTGRDWLRAELAVSTFWPNEYQVIFEAEVSGGRSGYIAIDDIQVLSYPCDKSPHFLRLGDVEVNAGQNATFQCIATGRDAVHNKLWLQRRNGEDIPVAQTKNINHRRFAASFRLQEVTKTDQDLYRCVTQSERGSGVSNFAQLIVREPPRPIAPPQLLGVGPTYLLIQLNANSIIGDGPIILKEVEYRMTSGSWTETHAVNAPTYKLWHLDPDTEYEIRVLLTRPGEGGTGLPGPPLITRTKCAEPMRTPKTLKIAEIQARRIAVDWESLGYNITRCHTFNVTICYHYFRGHNESRADCLDMDPKAPQHVVNHLPPYTNVSLKMILTNPEGRKESEETIIQTDEDVPGPVPVKSLQGTSFENKIFLNWKEPLEPNGIITQYEVSYSSIRSFDPAVPVAGPPQTVSNLWNSTHHVFMHLHPGTTYQFFIRASTVKGFGPATAINVTTNISAPSLPDYEGVDASLNETATTITVLLRPAQAKGAPISAYQIVVEQLHPHRTKREAGAMECYQVPVTYQNALSGGAPYYFAAELPPGNLPEPAPFTVGDNRTYKGFWNPPLAPRKGYNIYFQAMSSVEKETKTQCVRIATKAAATEEPEVIPDPAKQTDRVVKIAGISAGILVFILLLLVVIVIVKKSKLAKKRKDAMGNTRQEMTHMVNAMDRSYADQSTLHAEDPLSLTFMDQHNFSPRLPNDPLVPTAVLDENHSATAESSRLLDVPRYLCEGTESPYQTGQLHPAIRVADLLQHINLMKTSDSYGFKEEYESFFEGQSASWDVAKKDQNRAKNRYGNIIAYDHSRVILQPVEDDPSSDYINANYIDIWLYRDGYQRPSHYIATQGPVHETVYDFWRMVWQEQSACIVMVTNLVEVGRVKCYKYWPDDTEVYGDFKVTCVEMEPLAEYVVRTFTLERRGYNEIREVKQFHFTGWPDHGVPYHATGLLSFIRRVKLSNPPSAGPIVVHCSAGAGRTGCYIVIDIMLDMAEREGVVDIYNCVKALRSRRINMVQTEEQYIFIHDAILEACLCGETAIPVCEFKAAYFDMIRIDSQTNSSHLKDEFQTLNSVTPRLQAEDCSIACLPRNHDKNRFMDMLPPDRCLPFLITIDGESSNYINAALMDSYRQPAAFIVTQYPLPNTVKDFWRLVYDYGCTSIVMLNEVDLSQGCPQYWPEEGMLRYGPIQVECMSCSMDCDVINRIFRICNLTRPQEGYLMVQQFQYLGWASHREVPGSKRSFLKLILQVEKWQEECEEGEGRTIIHCLNGGGRSGMFCAIGIVVEMVKRQNVVDVFHAVKTLRNSKPNMVEAPEQYRFCYDVALEYLESS

How the values were obtained:
[1] = biological target: SRC (endogenous, from RA FLS lysates), P12931
[2] = biological target: T1, phospho-SRC Y527 peptide …

| Protein | basal phosphorylation of SRC Y527 in RA FLS after PTPRK knockdown (Western blotting) [1] | in vitro dephosphorylation of the SRC phospho-Y527 peptide (PTP assay, Biomol Green, absorbance at 620 nm) [2] |
| --- | --- | --- |
| B1 | RA FLS treated with PTPRK ASO showed increased basal phosphorylation of SRC Y527 |  |
| B2 |  | full-length RPTPk immunoprecipitated from COS-1 cells in vitro dephosphorylated a SRC phospho-Y527 peptide |
